In publication PMC7335907 one finds stoichiometry N data, which are given here for 1 substance.

This assay has as its target small laccase from Streptomyces coelicolor (SLAC), T1 copper-depleted mutant C288S (SLAC-T1D) (Streptomyces coelicolor) (UniProt Q9XAL8). Put plainly: SEC-MALS.

As for “small laccase from Streptomyces coelicolor (SLAC), T1 copper-depleted mutant C288S (SLAC-T1D) (from UniProt Q9XAL8 1-343) (enzyme)”, the stoichiometry N is 3.

The term stoichiometry N denotes the number of molecules, sites or subunits per partner or assembly.
